Reference: patent US20040033566A1
Each block holds one substance with its values, some of them ahead of it.

How the values were obtained:
factor X = factor X (UniProt P00742); assay: cell-based or functional assay
[1] = target: full-length recombinant human tissue factor (human) (UniProt P13726); assay: SPR, full-length TF captured by TF9-10H10, VIIa premixed with 10 µM 5L15
[2] = target: VIIaGln298 in complex with TF1-218 (human) (UniProt P08709); assay: cell-based or functional assay
[3] = target: wild-type VIIa in complex with TF1-218 (human) (UniProt P08709); assay: cell-based or functional assay
VIIaGln298 (human) = VIIaGln298 (human) (UniProt P08709); assay: cell-based or functional assay

Chain of UniProt P00742 (P00742 41-488 limits assumed): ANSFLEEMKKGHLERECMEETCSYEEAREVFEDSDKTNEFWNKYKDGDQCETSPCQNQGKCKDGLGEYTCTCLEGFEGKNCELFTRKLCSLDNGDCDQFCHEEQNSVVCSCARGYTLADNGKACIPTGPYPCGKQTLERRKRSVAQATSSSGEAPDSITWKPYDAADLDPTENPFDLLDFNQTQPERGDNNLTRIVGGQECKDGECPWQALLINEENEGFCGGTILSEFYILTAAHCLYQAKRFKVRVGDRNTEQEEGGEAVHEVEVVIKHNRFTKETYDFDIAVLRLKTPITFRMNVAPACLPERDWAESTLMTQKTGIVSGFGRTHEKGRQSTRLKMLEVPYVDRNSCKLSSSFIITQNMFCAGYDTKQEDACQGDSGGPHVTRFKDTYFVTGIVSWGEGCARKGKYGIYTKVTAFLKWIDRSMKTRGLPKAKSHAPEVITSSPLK

- KM (nM) of factor X activation by VIIa bound to phospholipid reconstituted T.F. (factor X): 68 nM
Substance: VIIaGln298 bound to phospholipid reconstituted T.F. (from UniProt P08709 61-212; P08709 213-466; P13726 33-295)

- Kd [1]: 0.8 nM
Substance: wild-type VIIa premixed with 10 µM 5L15 (from UniProt P08709 61-212; P08709 213-466)

- time to 50% inhibition of amidolytic activity of T.F.-VIIa complex by 0.5 µM antithrombin III with 5 U/ml heparin [2]: 4.5 min
- time to 50% inhibition of amidolytic activity of T.F.-VIIa complex by 0.5 µM antithrombin III with 5 U/ml heparin [3]: 6 min
- time to 50% inhibition of amidolytic activity of free VIIa by 0.5 µM antithrombin III with 5 U/ml heparin (VIIaGln298 (human)): 31 min
Substance: antithrombin III (from UniProt P01008 33-464)

- KM (nM) of factor X activation by VIIa bound to phospholipid reconstituted T.F. (factor X): 61 nM
Substance: wild-type VIIa bound to phospholipid reconstituted T.F. (from UniProt P08709 61-212; P08709 213-466; P13726 33-295)
